Experimental data as given in US12297265B2, “Antibody and use thereof” (SICHUAN KELUN-BIOTECH BIOPHARMACEUTICAL CO., LTD., priority 2018, dated 2025).
Marks after values point to notes of the source that are not given here.

How the values were obtained:
[1] = biological target: T1, human Claudin18.2 (Homo sapiens, UniProt P56856); assay: FACS positive rate of NUGC-4 cells; assay type: binding; design: cell lines endogenously expressing human Claudin18.2; host or cells: NUGC-4 human gastric cancer cell line; conditions: NUGC-4 cells endogenously expressing human Claudin18.2, FACS
Method: To determine binding affinity of the candidate antibodies to cell lines endogenously expressing human Claudin18.2, FACS analysis was performed to detect human Claudin18.2 expression level on NUGC-4 cells (purchased from Japan JCRB cell bank, catalog number: JCRB0834) which endogenously expresses human Claudin18.2. […] The binding affinity between candidate antibodies and NUGC-4 cells was then determined by Cellular ELISA following the same protocol as above.

[2] = biological target: T1, human Claudin18.2; assay: Cellular ELISA on L929-Claudin 18.2 cells; assay type: binding; design: expressed in transfected cells; host or cells: L929, infected with pLVX-IRES-puro lentivirus, puromycin-selected monoclonal line; cells were formaldehyde-fixed for the cellular ELISA
Method: Human Claudin18.2 is a four transmembrane protein and has a complex structure. Cellular ELISA was thus carried out to maintain the structure of Claudin18.2. The stable cell line L929-Claudin 18.2 constructed in Example 1 were used for detection. Specifically, L929-Claudin 18.2 adherent cells were detached by 2 mM EDTA treatment. The cells were resuspended and adjusted to 2×10^5/mL and 100 μL of the resuspension was plated into 96 well plate and incubated overnight at 37° C. The next day, the media was removed, and the plate was washed with PBS once. 100 μL/well 4% formaldehyde was added to the plate. After 30 min of incubation at room temperature, formaldehyde was removed, followed by washing twice with PBS. Blocking buffer (PBS containing 2% BSA) was then added to the plate at 100 μL/well, and incubated at 37° C. for 2 h. After removal of blocking buffer, 100 μL/well of serially diluted antibodies (starting from 1 μM, with 4-fold dilution, for a total of 11 concentrations) were added to the corresponding wells, which were incubated at 37° C. for 2h afterwards. The plate was washed with 250 μL PBST for 5 times, and was allowed to stand for 2 min each time. 100 μL/well of horseradish peroxidase labeled anti-Human IgG secondary antibody (HRP-anti-Human IgG, Jackson ImmunoResearch, 109-035-003) diluted 1:10000 in PBS (containing 2% BSA) was added to the plate. The plate was incubated at 37° C. for 1 h and washed with 250 μL PB ST 6 times, wherein the plate was allowed to stand for 2 min each time. 100 μL/well of TMB solution (Thermo, 34029) was added. The reactions were incubated at 37° C. for 20 min and stopped with 50 μL 2 mol/L H2504. The absorbance at 450 nm was read on a plate reader (MD, SpectraMax M2) and the results were subjected to curve fitting by Graphpad Prism.

[3] = biological target: T1, human Claudin18.2; assay: Flow cytometry affinity to HEK293T-Claudin 18.2 cells; assay type: binding; design: expressed in transfected cells
Method: The affinity of 2C6.9-hz21 to human claudin 18.2 on cell membrane was detected using HEK293T-Claudin 18.2 cells, as follows. HEK293T-Claudin 18.2 cells were detached and centrifuged, followed by washing for twice with PBS. And then the cells were resuspended in PBS containing 1% BSA and were plated into 96-well tip bottom plate at 300000 cells per well in a volume of 50 μl for 20 wells in total. 2C6.9-hz21 or IMAB362 antibody was then added with 11 concentrations starting from 1000 nM with three-fold dilution. Human IgG was served as negative control. The reactions were mixed well and incubated for 1 h at 4° C. in the dark. Following by three times of washing with PBS, the FITC-labelled anti-human Fc secondary antibody (Biolegend, 409322) was added and incubated for 0.5h in the dark. Detection was performed by flow cytometry (Beckman, Cytoflex) after washing for three times with PBS.

[4] = test system: L929-Claudin 18.2 cells; assay: NK cell mediated ADCC on L929-Claudin 18.2 cells (LDH); assay type: cell-based; conditions: L929-Claudin 18.2 target cells, NK92MI-CD16a effector cells
Method: (§1) The steps were as follows: HEK293T-Claudin 18.2, L929-Claudin 18.2, KATOIII-Claudin 18.2 and NUGC-4 cells were harvested and centrifuged followed by adjustment of cell density. 1×10^4/well of cells were plated on a plate and incubated overnight. The medium was removed on the next day. NK92MI-CD16a cells (Huabo Biopharm) were centrifuged, resuspended in MEMA medium and adjusted to 1×10^6/mL, then 50 μL/well cells were added to the corresponding wells. […] For HEK293T-Claudin18.2, L929-Claudin18.2 and KATOIII-Claudin18.2 cells, ten antibody concentrations were tested, starting from 40 μg/mL with 5-fold dilution. For NUGC-4 cells, eleven antibody concentrations were tested, starting from 2 mg/mL with 5-fold dilution. 50 μL/well of the diluted antibodies were added to the corresponding wells and the reactions were left to stand in incubator at 37° C., 5% CO2 and incubated for 5.5h. Lysis buffer was then added to the positive control well and incubated for another 0.5h. 50 μL/well of Lactate Dehydrogenase (LDH) detection agent (DOJINDO LABORATORISE, CK12) were added to the wells and the absorbance at 490 nm were taken every 10 min on a plate reader (MD, SpectraMax M2). The results were imported into Graphpad Prism for curve fitting.

[5] = test system: NUGC-4 cells; assay: NK cell mediated ADCC on NUGC-4 cells (LDH); assay type: cell-based, human; conditions: NUGC-4 target cells, NK92MI-CD16a effector cells
Method: as §1

[6] = biological target: T1, human Claudin18.2; assay: Affinity of chimeric and humanized antibodies to Ba/F3-Claudin 18.2 cells (IntelliCyt); assay type: binding; design: expressed in transfected cells; host or cells: Ba/F3 (BaF/3, DSMZ ACC300), hygromycin-selected monoclonal line
Description: In order to evaluate the anti-Claudin18.2 humanized antibodies, codon optimized cDNAs of the heavy chains and the light chains of the candidate humanized antibodies from Example 6 were synthesized and ligated into pcDNA3.4 (by Nanjing Genscript Biotech Corporation). Expi293F cells (purchased from Thermo Incorporation) were co-transfected with pcDNA3.4 coding the heavy chain and light chain of each antibody. The antibodies were purified from the supernatant using protein A (MabSelect SuRe, GE). The affinity of the humanized antibodies to Claudin18.2 was determined using Ba/F3-Claudin18.2 cells which over-expressed human Claudin18.2. Ba/F3-Claudin18.2 cells (60000 in 10 ul buffer) were incubated with purified humanized antibodies on ice for 30 min, followed by washing with buffer (PBS+2% FBS) twice and addition of Alexa647-labeled goat-anti-human IgG Fc antibody (1:500 dilution). The cells were incubated on ice for another 30 min and analyzed by IntelliCyt.

## IMAB362: Zolbetuximab (IMAB362) developed by Astellas, human-mouse chimeric IgG1 antibody targeting Claudin 18.2; control antibody, sequences from CN 101312989 B [reference compound]
[1]
  NUGC-4 cells tested positive for Claudin 18.2: 20%
[2]; Table 8 experiment
  Max Signal Value (OD450): 0.82 OD450
[2]; Table 9 experiment
  Max Signal Value (OD450): 0.53 OD450
[3]
  Max MFI: 156715.7
[4]
  Max. Cytotoxicity: 52%
[5]
  Max. Cytotoxicity: 35%
[6]
  Max MFI: 4.99* ×10^6
